In patent US20120004175A1 (RESEARCH FOUNDATION OF STATE UNIVERSITY OF NEW YORK, published 2012):

Molecular target: T1, NF-κB p65 (mouse, intestinal epithelial cells of wild-type C57BL/6J and Min mice) (mouse, UniProt Q04207 1-549)
T1 construct: Endogenous mouse protein
Assay: anti-p65 immunoprecipitation of nuclear extract from mouse intestinal epithelial cells, immunoblot

T1 sequence (Q04207 whole entry): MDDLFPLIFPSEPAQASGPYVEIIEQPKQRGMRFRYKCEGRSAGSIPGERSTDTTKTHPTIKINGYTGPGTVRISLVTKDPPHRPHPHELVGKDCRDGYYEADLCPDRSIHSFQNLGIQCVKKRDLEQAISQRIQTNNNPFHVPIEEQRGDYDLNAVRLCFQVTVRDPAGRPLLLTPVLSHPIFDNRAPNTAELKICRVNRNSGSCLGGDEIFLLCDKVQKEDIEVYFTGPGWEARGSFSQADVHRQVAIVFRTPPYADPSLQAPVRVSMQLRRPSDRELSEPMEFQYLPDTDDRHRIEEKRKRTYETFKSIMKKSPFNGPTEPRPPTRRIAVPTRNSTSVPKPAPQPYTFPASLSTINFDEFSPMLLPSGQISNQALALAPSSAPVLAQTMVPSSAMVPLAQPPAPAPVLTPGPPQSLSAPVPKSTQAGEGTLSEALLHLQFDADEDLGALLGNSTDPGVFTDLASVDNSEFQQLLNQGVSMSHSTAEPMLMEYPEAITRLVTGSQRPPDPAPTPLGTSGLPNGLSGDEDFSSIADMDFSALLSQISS

binding result: binds
B1: annexin 1 (mouse, intestinal epithelial cells of wild-type C57BL/6J and Min mice) (other, UniProt P10107 2-346, looked up)
chain: AMVSEFLKQARFLENQEQEYVQAVKSYKGGPGSAVSPYPSFNVSSDVAALHKAIMVKGVDEATIIDILTKRTNAQRQQIKAAYLQENGKPLDEVLRKALTGHLEEVVLAMLKTPAQFDADELRGAMKGLGTDEDTLIEILTTRSNEQIREINRVYREELKRDLAKDITSDTSGDFRKALLALAKGDRCQDLSVNQDLADTDARALYEAGERRKGTDVNVFTTILTSRSFPHLRRVFQNYGKYSQHDMNKALDLELKGDIEKCLTTIVKCATSTPAFFAEKLYEAMKGAGTRHKALIRIMVSRSEIDMNEIKVFYQKKYGISLCQAILDETKGDYEKILVALCGGN
notes: Endogenous mouse protein; also called induced annexin 1
